Assay results published in the supplement of paper PMC10126150.
± gives the standard deviation of the averaged measurements.
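Further: ATP exposure 15 min at 22 °C before imaging.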

What follows are sequences tested on ATP (assay: switch fluorescence ratio, 500 uM ATP over buffer (Cy3 cluster intensity, sum of 5 cycles each) (fold (ratio)); higher = stronger signal-on switching upon ATP binding; sequences stand for … in TCGTCGGCAGCGTCAGATGTGTATAAGAGACAGTTTTTTTTTTTTTTTTTTTTTTTTT…TC). Conditions: aptamer strand: ATP DNA aptamer (quencher-CACCTGGGGGAGTATTGCGGAGGAAGG + anchor), 100 nM annealed; ATP concentration: 500 uM.
Summary of the method: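 The quencher-labelled ATP aptamer, at 100 nM, was annealed to Cy3-labelled switching-strand clusters on a modified Illumina MiSeq flow-cell. The clusters were imaged in selection buffer, then after 15 min with 500 uM ATP at 22 °C, and this buffer/ATP cycle ran five times with NaOH stripping and re-annealing between runs. Per-cluster fluorescence ratios, summed target-cycle over summed buffer-cycle Cy3 intensity, were averaged per switch-domain sequence. Clusters outside 100-1000 RFU were excluded.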
CTTTCAGGCT showed a switch fluorescence ratio of 0.984 ± 0.016. With CTTTCTTTTT the switch fluorescence ratio was 0.992 ± 0.018. CTTTGCCTAG was tested, and the switch fluorescence ratio was 0.9806 ± 0.0088. CTTTGGATTG gave a switch fluorescence ratio of 0.99917 ± 0.00068. CTTTGGGCAA showed a switch fluorescence ratio of 1.46 ± 0.089. In the case of CTTTGGGGAC, the switch fluorescence ratio is reported as 1.055 ± 0.006. CTTTGGGGCG gave a switch fluorescence ratio of 1.01 ± 0.044. For CTTTGGGTTT, the switch fluorescence ratio was 0.981 ± 0.058. Work on CTTTGGTAGG yielded a switch fluorescence ratio of 0.992 ± 0.025. Sequence CTTTGGTATA has a switch fluorescence ratio of 0.977 ± 0.0051. For CTTTGGTTGA, the switch fluorescence ratio was 0.995 ± 0.031. CTTTGTCGGT showed a switch fluorescence ratio of 1.03 ± 0.054. CTTTGTGATA showed a switch fluorescence ratio of 1.04 ± 0.025. Sequence CTTTTAGTTG has a switch fluorescence ratio of 0.993 ± 0.017. CTTTTATTTA was tested, and the switch fluorescence ratio was 0.99186 ± 0.00094. For CTTTTGGAGT, the switch fluorescence ratio was 0.986 ± 0.05. Sequence CTTTTGTCAC has a switch fluorescence ratio of 1.05 ± 0.042. In the case of CTTTTGTCGT, the switch fluorescence ratio is reported as 1.01 ± 0.028. CTTTTTATGA showed a switch fluorescence ratio of 1.01 ± 0.027. In the case of CTTTTTATTT, the switch fluorescence ratio is reported as 1.14 ± 0.22. CTTTTTGTGG gave a switch fluorescence ratio of 0.9838 ± 0.0075. CTTTTTTAGA gave a switch fluorescence ratio of 0.9746 ± 0.0097. With GAAAAAAAAA the switch fluorescence ratio was 0.992 ± 0.023. GAAAAAAAAG gave a switch fluorescence ratio of 1.07 ± 0.1. GAAAAAAGAT was tested, and the switch fluorescence ratio was 1.02 ± 0.014. GAAAAAAGGC gave a switch fluorescence ratio of 1.03 ± 0.032. GAAAAAGCCC showed a switch fluorescence ratio of 1.04 ± 0.031. Sequence GAAAAAGGAC has a switch fluorescence ratio of 1.27 ± 0.32. With GAAAAAGGGA the switch fluorescence ratio was 0.979 ± 0.026. GAAAAAGGTC gave a switch fluorescence ratio of 1.031 ± 0.008. GAAAAATTTT was tested, and the switch fluorescence ratio was 1.02 ± 0.026. In the case of GAAAAGAGTC, the switch fluorescence ratio is reported as 1.07 ± 0.034. Work on GAAAAGCCCC yielded a switch fluorescence ratio of 1.09 ± 0.059. Sequence GAAAAGTAAG has a switch fluorescence ratio of 1.018 ± 0.008. GAAAATTATA showed a switch fluorescence ratio of 1.02 ± 0.035. With GAAAATTATG the switch fluorescence ratio was 1.009 ± 0.0086. In the case of GAAACAGGAT, the switch fluorescence ratio is reported as 1.02 ± 0.058. GAAACCGGAG gave a switch fluorescence ratio of 1.567 ± 0.015. With GAAACCTATT the switch fluorescence ratio was 1.0142 ± 7.7e-05. GAAACGAAGG gave a switch fluorescence ratio of 0.9704 ± 0.0028. GAAACGGTGT was tested, and the switch fluorescence ratio was 1.02 ± 0.031. In the case of GAAACTTGGT, the switch fluorescence ratio is reported as 1.004 ± 0.0065. Sequence GAAAGAAGGG has a switch fluorescence ratio of 1.21 ± 0.35. For GAAAGAGGGA, the switch fluorescence ratio was 1.02 ± 0.079. GAAAGAGTTC gave a switch fluorescence ratio of 0.99729 ± 0.00094. With GAAAGATGAC the switch fluorescence ratio was 1.03 ± 0.088. GAAAGCGGGG showed a switch fluorescence ratio of 0.968 ± 0.024. GAAAGGGGCT showed a switch fluorescence ratio of 0.993 ± 0.031. With GAAAGGGGGA the switch fluorescence ratio was 1.02 ± 0.025. GAAAGGGGTC gave a switch fluorescence ratio of 1.01 ± 0.074. Work on GAAAGGGGTT yielded a switch fluorescence ratio of 1.02 ± 0.035. For GAAAGGGTCC, the switch fluorescence ratio was 1.001 ± 0.01. GAAAGGTAAG gave a switch fluorescence ratio of 0.9934 ± 0.0036. GAAAGTAGAG gave a switch fluorescence ratio of 1.01 ± 0.0018. In the case of GAAAGTGCAT, the switch fluorescence ratio is reported as 0.999 ± 0.042. GAAAGTTAGG gave a switch fluorescence ratio of 1.1 ± 0.14. GAAATAACTC showed a switch fluorescence ratio of 1.36 ± 0.43. Work on GAAATAGGTT yielded a switch fluorescence ratio of 0.989 ± 0.012. Work on GAAATATAAT yielded a switch fluorescence ratio of 1.012 ± 0.0066. Work on GAAATCGGGG yielded a switch fluorescence ratio of 1.05 ± 0.15. Sequence GAAATCGTTC has a switch fluorescence ratio of 1.02 ± 0.019. For GAAATGAAGG, the switch fluorescence ratio was 0.973 ± 0.016. For GAAATGATTT, the switch fluorescence ratio was 1.0406 ± 6.4e-05. Sequence GAAATGCGGC has a switch fluorescence ratio of 0.97935 ± 0.00044. In the case of GAAATGGCAA, the switch fluorescence ratio is reported as 1.03 ± 0.051. In the case of GAAATGGCGT, the switch fluorescence ratio is reported as 0.986 ± 0.038. GAAATGTGAG gave a switch fluorescence ratio of 0.9797 ± 0.0045. For GAAATTCCGC, the switch fluorescence ratio was 1.27 ± 0.088. GAAATTGAGT gave a switch fluorescence ratio of 1 ± 0.027. With GAAATTGGCA the switch fluorescence ratio was 1.025 ± 0.004. In the case of GAAATTTTGT, the switch fluorescence ratio is reported as 0.994 ± 0.012. In the case of GAACAACATG, the switch fluorescence ratio is reported as 1.03 ± 0.051. For GAACACAAAA, the switch fluorescence ratio was 1.05 ± 0.032. Sequence GAACAGGGGA has a switch fluorescence ratio of 1.53 ± 0.68. GAACATTTCG showed a switch fluorescence ratio of 1 ± 0.021. For GAACCGTGTT, the switch fluorescence ratio was 0.967 ± 0.036. GAACCTGTGT showed a switch fluorescence ratio of 0.993 ± 0.052. GAACGCGTCC showed a switch fluorescence ratio of 1.1 ± 0.015. With GAACGGCGGA the switch fluorescence ratio was 0.9811 ± 0.002. GAACGGCTCT showed a switch fluorescence ratio of 1.012 ± 0.0011. GAACGTTTGC gave a switch fluorescence ratio of 1.11 ± 0.017. GAACTAAATG showed a switch fluorescence ratio of 1 ± 0.055. In the case of GAACTAGGCA, the switch fluorescence ratio is reported as 1 ± 0.012. GAACTGAGTC showed a switch fluorescence ratio of 1.01 ± 0.046. GAACTTGCCA was tested, and the switch fluorescence ratio was 1.06 ± 0.073. GAACTTGCCT was tested, and the switch fluorescence ratio was 1 ± 0.018. Sequence GAACTTGGG has a switch fluorescence ratio of 1.01 ± 0.045. Sequence GAACTTGTCT has a switch fluorescence ratio of 1.02 ± 0.036. GAACTTTCTG was tested, and the switch fluorescence ratio was 1.006 ± 0.0063. GAAGAACTGG gave a switch fluorescence ratio of 0.991 ± 0.054. With GAAGAGAGGC the switch fluorescence ratio was 0.96 ± 0.024. For GAAGATGGTG, the switch fluorescence ratio was 0.963 ± 0.037. GAAGCACCGG showed a switch fluorescence ratio of 1.08 ± 0.026. GAAGCAGATG was tested, and the switch fluorescence ratio was 1.16 ± 0.033. GAAGCCATAT gave a switch fluorescence ratio of 1.48 ± 0.068. Sequence GAAGCCGTTT has a switch fluorescence ratio of 1.01 ± 0.039. Sequence GAAGCGGGTG has a switch fluorescence ratio of 1.1 ± 0.1. For GAAGCGTGTC, the switch fluorescence ratio was 1.02 ± 0.017. With GAAGCTGTAT the switch fluorescence ratio was 1.1 ± 0.035. With GAAGGAACGT the switch fluorescence ratio was 0.981 ± 0.043.
